Consider 2 molecules from patent US20040001822A1, “Y1-isolated molecules comprising epitopes containing sulfated moieties, antibodies to such epitopes, and uses thereof” (priority 2000, published 2004).

In data set [1] the test system is platelet-rich-plasma (PRP). In words: Ristocetin-induced aggregation of platelet-rich plasma after preincubation with scFv. In kind it is cell-based, human. The following applies: scFv 38 μg/ml. As to the method:
The effect of Y1 (scfv) on aggregation of platelet-rich-plasma (PRP) was tested at various concentrations of Y1. PRP was pre-incubated with Y1 scfv, Y17 scfv, or a control sTM-1cFv for 4 min at 37° C. before being exposed to ristocetin, an inducer of platelet agglutination and aggregation. A reversible inhibitory effect was observed when scFv was added to PRP prior to the addition of ristocetin, and it was dose dependent.
Blood was collected into a tube containing 3.8% sodium citrate. Platelet-rich plasma was prepared by centrifugation at 250×g for 10 minutes.
(§1) For platelet aggregation studies, platelet rich plasma (PRP) and washed platelets were stirred at 500 rpm at 37° C. in whole blood Lumiaggregometer (Chronolog, Havertown,Pa.). The difference in light transmission through the platelet suspension and suspending medium was taken as 100% aggregation. The effect of Y1 on platelet aggregation was evaluated by addition of different concentration of Y1 before the addition of agonist, and the effect was recorded for four minutes.

A further data set relates to washed platelets. In words: Ristocetin-induced agglutination of washed platelets after preincubation with scFv. It counts as cell-based, human. On the procedure:
Aggregation is determined in PRP due to the presence of thrombotic agents, while agglutination is determined in washed platelets. The effect of Y1 (scFv) on agglutination of washed platelets was tested at various concentrations of Y1. Platelets were pre-incubated with Y1 scFv, Y17 scFv, Y16-scFv, or a control TM-1 scFv for 4 min at 37° C. before being exposed to ristocetin, an inducer of platelet agglutination and aggregation.
Platelet concentrate in acid-citrate-dextrose (ACD) was obtained from a blood bank, platelets were isolated, washed once in buffer containing ACD and saline in a ratio of 1:7. The platelets were centrifuged at 800 g for 10 min after each wash and were resuspended in Tyrodes solution (2 mM MgCl2, 137 mM NaCl, 2.68 mM KCl, 3 mM NaH2PO4, 0.1% glucose, 5 mM Hepes and 0.35% albumin, pH 7.35) and count the number of cells.
as §1
The effect of Y17-scFv on vWF-dependent agglutination of platelets was tested at different concentrations of Y17.

In data set [2] the target is T1, GPIb (glycocalicin) derived from platelets (Homo sapiens, UniProt P07359).
T1 construct: glycocalicin (soluble, extracellular fragment of GPIbα); from tissue; host or cells: human platelets
In words: ELISA to glycocalicin, monomer versus cysteine dimer. In kind it is binding. As to the method: An ELISA assay was performed to ascertain the differences in binding between the monomer (the Y1 scFv-also known as Y1-kak) and the dimer Y1-cys-kak (the cysteine dimer) for antigen GPIb (glycocalicin) derived from platelets. A polyclonal anti single chain antibody and/or a novel polyclonal anti-VL (derived from rabbits) and anti-rabbit HRP, were used to detect the binding to GPIb. […] For instance, to reach 0.8 OD units 12.8 μg/ml of monomer was used compared to only 0.1 μg/ml of dimer.
100 ml of purified glycocalicin was incubated in a 96 flat well maxisorp plates, overnight at 4 degrees celsius. The plate was washed with PBST (PBS+0.05% tween) 3 times, then […] of PBST-milk (PBST+2% Non fat milk), for 1 hr at room temperature. The plate was washed with PBST, and the monomer or dimer (100 ml) was added in PBST-milk at different concentrations for 1 hr at room temp. Then the plate was washed and anti-VL polyclonal (derived from immunized rabbits with VL derived from Y1) (1:100 diluted in PBST-milk) was added for an hour. The plate was washed and anti-rabbit HRP was added for an additional hour. The plate was washed 5 times and 100 μl TMB substrate was added for approximately 15 minutes then 100 μl of 0.5 H2SO4 was added to stop the reaction. The optical density of the plate was measured at 450 nm in an ELISA reader.
Background: In an ELISA, binding on a coated surface is turned into a signal by an enzyme label.

A further data set concerns KG-1 cells. In words: AML KG-1 model in NOD/SCID mice. In kind it is in vivo. On the procedure:
The in vivo mouse model for human AML uses SCID/NOD mice (Jackson Laboratories) inoculated with KG-1 cells derived from a human AML cell line.
In a first experiment, NOD/SCID mice were pretreated with 100 mg/kg CYTOXAN®. Four days post CYTOXAN® injection, KG-1 cells were injected intravenously into the tail vein of six groups of mice. (Table N, Groups 2 and 5-9). One group of mice (Table N, Group 1) was injected with PBS alone (control).
Beginning 19 days post KG-1 injection mice were treated with: CONY1, Doxorubicin, CONY1-Doxorubicin conjugate, or Mylotarg®. (Mylotarg® is a monoclonal antibody (anti CD33) conjugated chemically to calcheamicin recently approved by the FDA for treatment of AML patients age 60 and over in a first relapse.) Mice were treated once or three times per week for three weeks. […]
Mice were sacrificed from 60 to 65 days post cell injection. Bone marrow samples were analyzed by flow cytometry using mouse anti human CD34-FITC (IQP 144F) (or anti CD44-FITC (MCA89F, Serotec)) and Y1-Biotin/SAV-PE. […]
An additional experiment was performed in which SCID-NOD mice were i.v. injected with 3×10^4 MOLT-4 cells/mouse 5 days post treatment with cyclophosphamide. […] Bone marrow was extracted and analyzed by FACS analysis using a commercially available antiCD44 antibody for the detection of MOLT-4 cells in the mice bone marrow cell population.

A short description of data set [3]: Pharmacokinetics of 125I-CONY1 after intravenous injection. In kind it is in vivo, Male Balb-C mice. As to the method: Two to four mice were used per time point. […] Organ/tissue total and specific radioactivity values were calculated.
The subject of a further data set is MOLT-4 cells. The data set is described as follows: T-ALL (MOLT4) model in SCID mice. It counts as in vivo. As to the method: The in vivo mouse model for T-ALL uses SCID mice (Jackson Laboratories) injected with MOLT4 cells derived from a T cell leukemia patient.
In one experiment, SCID mice were pretreated with 100 mg/kg Cytoxan (CTX, Cycloposphamid for injection, Mead Johnson). Eleven days after CTX injection, MOLT-4 cell were injected intravenously into the tail vein. Control mice were injected with PBS alone. One week post-MOLT-4 injection mice were injected with CONY1-Doxorubicin, which is a conjugate between scFv CON Y1 polypeptide, having KAK amino acid residues at its carboxy end and doxorubicin via a short organic linker; CONY1, which is a scFv antibody fragment derived from Y1 scFv in which the DNA sequences encoding the myc tag of Y1 were deleted and replaced with a DNA sequence encoding the amino acids lysine, alanine, lysine (KAK); or free Doxorubicin. The mice were injected three times per week for three weeks. […] (Table M).
Mice started to die 32 days post cell inoculation, and the surviving mice were sacrificed at this time. Bone marrow cells were analyzed by flow cytometry using anti-human CD44-FITC and Y1-Biotin/SAV-PE. Blood samples from several animals were monitored for platelet and white blood cell count. Livers were weighted and examined for tumor appearance. Other organs were also examined for tumor appearance.
In a second experiment, SCID mice were i.v. injected with 2×10^7 MOLT-4 cells/mouse, 5 days post treatment with cyclophosphamide. Anti-cancer agents or PBS (negative control animals) were injected i.v. three times/week from day 5 post MOLT-4 cells injection and onward. On day 35, blood was drawn from the animals, the animals were sacrificed, and their livers were excised and weighed. In the untreated, PBS-treated MOLT-4 cell-bearing animals, the liver presented with a very massive tumor growth, and its size was increased 2-3-fold relative to PBS control uninfected animals. In this experiment, there were five treatment groups:
In parallel, portions of liver tissue were taken for histology and cell harvesting for FACS analysis. The survival rate of another group of treated animals was recorded relative to that of control untreated mice.
In a third experiment, using the identical SCID/MOLT-4 protocol, there were 6 groups: […]

The mark [4] stands for this setting: scFv 25 μg/ml, ristocetin = 100% agglutination.

B1: Y17 scFv: second scFv clone binding platelets and myelogenous leukemia cell lines, SEQ ID NO: 203 (protein, listed as Homo sapiens)
scFv: MKYLLPTAAAGLLLLAAQPAMAEVQLVESGGGVVRPGGSLRLSCAASGFTFDDYGMSWVRQAPGKGLEWVSGINWNGGSTGYADSVKGRFTISRDNAKNSLYLQMNSLRAEDTAVYYCARLTHPYFWGQGTLVTVSRGGGGSGGGGSGGGGSSELTQDPAVSVALGQTVRITCQGDSLRSYYASWYQQKPGQAPVLVIYGKNNRPSGIPDRFSGSSSGNTASLTITGAQAEDEADYYCNSRDSSGNHVVFGGGTKLTVLGAAAEQKLISEEDLNGAA
Regarding B1, in data set [1], the “% aggregation” value came to 100%. For the same molecule, the “% inhibition” value in data set [1] (listed as Y17) is given as “did not inhibit”; with washed platelets (setting [4]) it was 15%. Besides, in the data set on washed platelets (final concentration of 10, 25 or 50 μg/ml), the “inhibition of vWF-dependent platelet agglutination induced by ristocetin” value is reported as “did not inhibit”. Further, in the data set on washed platelets (setting [4]), the “% agglutination” value turned out to be 85%.

B2: CONY1: scFv derived from Y1 scFv with the myc tag replaced by lysine, alanine, lysine (KAK), SEQ ID NO: 204 (protein, listed as Homo sapiens)
scFv: MKYLLPTAAAGLLLLAAQPAMAEVQLVESGGGVVRPGGSLRLSCAASGFTFDDYGMSWVRQAPGKGLEWVSGINWNGGSTGYADSVKGRFTISRDNAKNSLYLQMNSLRAEDTAVYYCARMRAPVIWGQGTLVTVSRGGGGSGGGGSGGGGSSELTQDPAVSVALGQTVRITCQGDSLRSYYASWYQQKPGQAPVLVIYGKNNRPSGIPDRFSGSSSGNTASLTITGAQAEDEADYYCNSRDSSGNHVVFGGGTKLTVLGAAAKAK
Turning to B2, the “concentration to reach 0.8 OD units” value in data set [2] is 12.8 µg/mL. In addition, the “prevalence of cancer cells in the bone marrow” value in the data set on KG-1 cells (additional experiment, day 60, CONY1 scFv 75 μg/mouse three times/week, Mylotarg 7 μg/mouse once a week) was “had no effect”. The “percentage of KG-1 cells in bone marrow” value in the data set on KG-1 cells (first experiment, KG-1 cells incubated in vitro with scFv before injection (groups 3 and 4)) is recorded as “significantly lower percentage”. Also, the “half-life of blood clearance, first compartment” value in data set [3] (15 μg per mouse i.v., plasma TCA precipitable radioactivity, two-compartment model) was 0.583 h. In addition, in data set [3] (15 μg per mouse i.v., two-compartment model), the “half-life of blood clearance, second compartment” value was 3.17 h. The “distribution between plasma and erythrocytes” value in data set [3] (blood versus plasma radioactivity) was “practically all of the CONY-1 resided in the plasma and did not adhere to erythrocytes”. The “specific uptake in body tissues” value in data set [3] (liver, lung, kidney, spleen, bone marrow, 5 minutes to 24 hours) is reported as “no major specific uptake”. Moreover, the “liver weight versus free Doxorubicin or untreated” value with MOLT-4 cells (first experiment, three times per week for three weeks, sacrifice 32 days post cell inoculation) is “weighted significantly less”. For the same molecule, the survival result with MOLT-4 cells (mice which received continued treatment) was “prolonged”. For the same molecule, the “liver weights / tumor growth in the liver” value with MOLT-4 cells (second experiment, day 35, i.v. three times/week, CONY1 and conjugate 75 μg/mouse, Doxorubicin 0.1 mg/kg) is listed as “markedly inhibited tumor growth in the liver”. For the same molecule, the “tumor growth (based on liver weights)” value in the data set on MOLT-4 cells (third experiment, CONY1 scFv 75 μg/mouse, Y1-IgG 5 μg/mouse) is on record as “inhibited tumor growth”.

Broadly, the % inhibition is how much of the control response was suppressed.
